This note sets out measurements from patent US20250115889A1 (DENTERIC, published 2025).

The chains are these.
B1: KDcAK1nK (other)
chain: NTGVSFANYTAHGSETAWADPLLTTSQLKALTNKDKWGDNTGYQFLLDADHNTFGSVIPATGPLFTGTASSNLYSANFEYLIPANADPVVTTQNIIVTGQGEVVIPGGVYDYCITNPEPASGKMWIAGDGGNQPARYDDFTFEAGKKYTFTMRRAGMGDGTDMEVEDDSPASYTYTVYRDGTKIKEGLTATTFEEDGVAAGNHEYCVEVKYTAGVSPKVCKDVTVEGSNEFAPVQNLTGSSVGQKVTLKWDAPNGTPNPNPNPNPNPGTTLSESFENGIPASWKTIDADGDGHGWKPGNAPGIAGYNSNGCVYSESFGLGGIGVLTPDNYLITPALDLPNGGNTGVSFANYTAHGSETAWADPLLTTSQLKALTNKDK
B2: KDAK1n-4S-AVQP (other)
chain: NTGVSFANYTAHGSETAWADPLLTTSQLKALTNKDKAEGSREVKRIGDGLFVTIEPANDVRANEAKVVLAADNVWGDNTGYQFLLDADHNTFGSVIPATGPLFTGTASSNLYSANFEYLIPANADPVVTTQNIIVTGQGEVVIPGGVYDYSITNPEPASGKMWIAGDGGNQPARYDDFTFEAGKKYTFTMRRAGMGDGTDMEVEDDSPASYTYTVYRDGTKIKEGLTATTFEEDGVAAGNHEYSVEVKYTAGVSPKVSKDVTVEGSNEFAAVQPLTGSSVGQKVTLKWDAPNGTPNPNPNPNPNPGTTLSESFENGIPASWKTIDADGDGHGWKPGNAPGIAGYNSNGSVYSESFGLGGIGVLTPDNYLITPALDLPNGG
notes: also called KDAK1n mutant
B3: DUF (other)
chain: AEGSREVKRIGDGLFVTIEPANDVRANEAKVVLAADNVWGDNTGYQFLLDADHNTFGSVIPATGPLFTGTASSNLYSANFEYLIPANADPVVTTQNIIVTGQGEVVIPGGVYDYCITNPEPASGKMWIAGDGGNQPARYDDFTFEAGKKYTFTMRRAGMGDGTDM
notes: also called DUF2436 domain; not shown: C-terminal His tag
B4: DUF-ABM213 (other)
chain: AEGSREVKRIGDGLFVTIEPANDVRANEAKVVLAADNVWGDNTGYQFLLDADHNTFGSVIPATGPLFTGTASSNLYSANFEYLIPANADPVVTTQNIIVTGQGEVVIPGGVYDYCITNPEPASGKMWIAGDGGNQPARYDDFTFEAGKKYTFTMRRAGMGDGTDMEVEDDSPASYTYTVYRDGTKIKEGLTATTFEEDGVAAGNHEYCVEVKYTAGVSPKVCKDVTVEGSNEFAPVQNLTGSSVGQKVTLKWDAPNGTPNPNPNPNPNPGT
notes: also called DUF2436 domain plus ABMs
B5: KDcAK1n (prior art chimera) (other)
chain: NTGVSFANYTAHGSETAWADPLLTTSQLKALTNKDKWGDNTGYQFLLDADHNTFGSVIPATGPLFTGTASSNLYSANFEYLIPANADPVVTTQNIIVTGQGEVVIPGGVYDYCITNPEPASGKMWIAGDGGNQPARYDDFTFEAGKKYTFTMRRAGMGDGTDMEVEDDSPASYTYTVYRDGTKIKEGLTATTFEEDGVAAGNHEYCVEVKYTAGVSPKVCKDVTVEGSNEFAPVQNLTGSSVGQKVTLKWDAPNGTPNPNPNPNPNPGTTLSESFENGIPASWKTIDADGDGHGWKPGNAPGIAGYNSNGCVYSESFGLGGIGVLTPDNYLITPALDLPNGG
notes: also called original chimera
B6: rABM21-AVQN (other)
chain: ASYTYTVYRDGTKIKEGLTATTFEEDGVAAGNHEYCVEVKYTAGVSPKVCKDVTVEGSNEFAAVQNLTGSSVGQKVTLKWDAPN
B7: rABM21-AVQA (other)
chain: ASYTYTVYRDGTKIKEGLTATTFEEDGVAAGNHEYCVEVKYTAGVSPKVCKDVTVEGSNEFAAVQALTGSSVGQKVTLKWDAPN
B8: rABM21--Y > A (other)
chain: ASYTATVYRDGTKIKEGLTATTFEEDGVAAGNHEYCVEVKYTAGVSPKVCKDVTVEGSNEFAPVQNLTGSSVGQKVTLKWDAPN
B9: rABM21-AVQA-2X Cys > Ser (other)
chain: ASYTYTVYRDGTKIKEGLTATTFEEDGVAAGNHEYSVEVKYTAGVSPKVSKDVTVEGSNEFAAVQALTGSSVGQKVTLKWDAPN
B10: rABM21-AVQP (other)
chain: ASYTYTVYRDGTKIKEGLTATTFEEDGVAAGNHEYCVEVKYTAGVSPKVCKDVTVEGSNEFAAVQPLTGSSVGQKVTLKWDAPN
B11: rABM21 (other)
chain: ASYTYTVYRDGTKIKEGLTATTFEEDGVAAGNHEYCVEVKYTAGVSPKVCKDVTVEGSNEFAPVQNLTGSSVGQKVTLKWDAPN
notes: also called recombinant ABM21; recombinant protein encoding ABM2(1) and ABM1(2)
B12: rABM21-SSEYQ (other)
chain: ASYTYTVYRDGTKIKEGLTATTFEEDGVAAGNHEYCVEVKYTAGVSPKVCKDVTVEGSSEYQPVQNLTGSSVGQKVTLKWDAPNGT
notes: also called SSEYQ variant
B13: rABM21-Y > A/W > A (other)
chain: ASYTATVYRDGTKIKEGLTATTFEEDGVAAGNHEYCVEVKYTAGVSPKVCKDVTVEGSNEFAPVQNLTGSSVGQKVTLKADAPNGT
B14: rABM213 (other)
chain: ASYTYTVYRDGTKIKEGLTATTFEEDGVAAGNHEYCVEVKYTAGVSPKVCKDVTVEGSNEFAPVQNLTGSSVGQKVTLKWDAPNGTPNPNPNPNPNPGT
notes: also called recombinant protein encoding ABM2(1), ABM1(2) and ABM3
B15: KDAK1nK (other)
chain: NTGVSFANYTAHGSETAWADPLLTTSQLKALTNKDKAEGSREVKRIGDGLFVTIEPANDVRANEAKVVLAADNVWGDNTGYQFLLDADHNTFGSVIPATGPLFTGTASSNLYSANFEYLIPANADPVVTTQNIIVTGQGEVVIPGGVYDYCITNPEPASGKMWIAGDGGNQPARYDDFTFEAGKKYTFTMRRAGMGDGTDMEVEDDSPASYTYTVYRDGTKIKEGLTATTFEEDGVAAGNHEYCVEVKYTAGVSPKVCKDVTVEGSNEFAPVQNLTGSSVGQKVTLKWDAPNGTPNPNPNPNPNPGTTLSESFENGIPASWKTIDADGDGHGWKPGNAPGIAGYNSNGCVYSESFGLGGIGVLTPDNYLITPALDLPNGGNTGVSFANYTAHGSETAWADPLLTTSQLKALTNKDK
B16: KDAK1n (other)
chain: NTGVSFANYTAHGSETAWADPLLTTSQLKALTNKDKAEGSREVKRIGDGLFVTIEPANDVRANEAKVVLAADNVWGDNTGYQFLLDADHNTFGSVIPATGPLFTGTASSNLYSANFEYLIPANADPVVTTQNIIVTGQGEVVIPGGVYDYCITNPEPASGKMWIAGDGGNQPARYDDFTFEAGKKYTFTMRRAGMGDGTDMEVEDDSPASYTYTVYRDGTKIKEGLTATTFEEDGVAAGNHEYCVEVKYTAGVSPKVCKDVTVEGSNEFAPVQNLTGSSVGQKVTLKWDAPNGTPNPNPNPNPNPGTTLSESFENGIPASWKTIDADGDGHGWKPGNAPGIAGYNSNGCVYSESFGLGGIGVLTPDNYLITPALDLPNGG
B17: rABM21-2XCys > Ser (other)
chain: ASYTYTVYRDGTKIKEGLTATTFEEDGVAAGNHEYSVEVKYTAGVSPKVSKDVTVEGSNEFAPVQNLTGSSVGQKVTLKWDAPN
B18: rABM21-AVQP-2X Cys > Ser (other)
chain: ASYTYTVYRDGTKIKEGLTATTFEEDGVAAGNHEYSVEVKYTAGVSPKVSKDVTVEGSNEFAAVQPLTGSSVGQKVTLKWDAPN
notes: also called ABM21-2S-AVQP
B19: KDcAK1n-4S (other)
chain: NTGVSFANYTAHGSETAWADPLLTTSQLKALTNKDKWGDNTGYQFLLDADHNTFGSVIPATGPLFTGTASSNLYSANFEYLIPANADPVVTTQNIIVTGQGEVVIPGGVYDYSITNPEPASGKMWIAGDGGNQPARYDDFTFEAGKKYTFTMRRAGMGDGTDMEVEDDSPASYTYTVYRDGTKIKEGLTATTFEEDGVAAGNHEYSVEVKYTAGVSPKVSKDVTVEGSNEFAPVQNLTGSSVGQKVTLKWDAPNGTPNPNPNPNPNPGTTLSESFENGIPASWKTIDADGDGHGWKPGNAPGIAGYNSNGSVYSESFGLGGIGVLTPDNYLITPALDLPNGG
notes: also called chimera with all four Cysteine residues mutated to Serine
B20: KDcAK1n-4S-AVQP (other)
chain: NTGVSFANYTAHGSETAWADPLLTTSQLKALTNKDKWGDNTGYQFLLDADHNTFGSVIPATGPLFTGTASSNLYSANFEYLIPANADPVVTTQNIIVTGQGEVVIPGGVYDYSITNPEPASGKMWIAGDGGNQPARYDDFTFEAGKKYTFTMRRAGMGDGTDMEVEDDSPASYTYTVYRDGTKIKEGLTATTFEEDGVAAGNHEYSVEVKYTAGVSPKVSKDVTVEGSNEFAAVQPLTGSSVGQKVTLKWDAPNGTPNPNPNPNPNPGTTLSESFENGIPASWKTIDADGDGHGWKPGNAPGIAGYNSNGSVYSESFGLGGIGVLTPDNYLITPALDLPNGG
notes: also called KDcAKIn-4S-AVQP; KDcAK1n PVQN>AVQP/4 Cys>Ser variant

One data set concerns the molecule itself. Nature of the data set: native PAGE of small scale purified protein, self-association (multimer bands).
With B1, the binding result is on record as “binds”.

A further data set concerns the molecule itself. Nature of the data set: column 'Multimer [yes/no]'; self-association.
For B2, the binding result is given as “no binding”.
Still for that read-out and setting: the value for B3 was “no binding”.
For B4, the binding result was “binds”.

Another data set concerns the molecule itself. Nature of the data set: native PAGE of small scale purified protein, self-association (multimers).
As for B5, the binding result is listed as “binds”.

The next data set deals with the molecule itself. Description: Native PAGE without DTT; self-association (ability to form multimers).
In the case of B6, the binding result was “binds”.
The same measure, in the same setting: the value for B7 was “binds”; that for B8 was “binds”; that for B9 was “binds”.
On the same count and under the same terms, the same measure for B10: “binds”; for B11: “binds”; for B12: “binds”.
As to B13, the binding result is “no binding”.
Still for that read-out and setting: the same measure for B14: “binds”.

The next data set deals with the molecule itself. Nature of the data set: native PAGE of small scale purified protein, self-association (multimer ladder).
Turning to B15, the binding result was “binds”.
With B16, the binding result is given as “binds”.

The next data set deals with the molecule itself. Nature of the data set: native PAGE with and without DTT, self-association (multimer ladder).
Regarding B17, the binding result is “binds”.
With B18, the binding result is on record as “no binding”.
Consider B19, for which the binding result was “binds”.
On the same count and under the same terms, the value for B20 was “no binding”.
